# Laboratory results taken from patent publication US20100222280A1 (PROYECTO DE BIOMEDICINA CIMA S L, published 2010).
# B1: peptide identified by SEQ ID NO: 12 (peptide)
# peptide: WHKYFLRRPLSVGLG
# notes: 15-aa peptide
# B2: peptide identified by SEQ ID NO: 19 (peptide)
# peptide: RHLSHFKWLRSHGLD
# notes: 15-aa peptide
# B3: peptide identified by SEQ ID NO: 7 (peptide)
# peptide: HRISHFAHRYLARLH
# notes: 15-aa peptide
# B4: peptide identified by SEQ ID NO: 15 (peptide)
# peptide: GWITFHRRHHDRVLS
# notes: 15-aa peptide
# B5: peptide identified by SEQ ID NO: 22 (peptide)
# peptide: VPMALNHGVYVMVSS
# notes: 15-aa peptide
# B6: peptide identified by SEQ ID NO: 1 (peptide)
# peptide: DRRIFWWSLRSAPGA
# notes: 15-aa peptide
# B7: peptide identified by SEQ ID NO: 2 (peptide)
# peptide: DRRIFWWSNRSAPGA
# notes: 15-aa peptide
# B8: peptide identified by SEQ ID NO: 6 (peptide)
# peptide: PPYHRFWRGHRHAVQ
# notes: 15-aa peptide
# B9: peptide identified by SEQ ID NO: 9 (peptide)
# peptide: GWHSLLHSRYHRLAA
# notes: 15-aa peptide
# B10: peptide identified by SEQ ID NO: 3 (peptide)
# peptide: RFFTRFPWHYHASRL
# notes: 15-aa peptide
# B11: peptide identified by SEQ ID NO: 20 (peptide)
# peptide: RRFHFHSRMVAVDNS
# notes: 15-aa peptide
# B12: peptide identified by SEQ ID NO: 5 (peptide)
# peptide: RRWVRYPVHLHSPIV
# notes: 15-aa peptide
# B13: peptide identified by SEQ ID NO: 14 (peptide)
# peptide: SGRRHLHRHHIFSLP
# notes: 15-aa peptide
# B14: peptide identified by SEQ ID NO: 10 (peptide)
# peptide: FVWVRFHRLPRQIYT
# notes: 15-aa peptide
# B15: peptide identified by SEQ ID NO: 4 (peptide)
# peptide: RLAHSHRHRSHVALT
# notes: 15-aa peptide
# B16: peptide identified as P144 in the Spanish patent application ES 2146552 A1 (SEQ ID NO: 51) (peptide)
# peptide: TSLDASIIWAMMQN
# B17: peptide identified by SEQ ID NO: 18 (peptide)
# peptide: MPLSRYWWLFSHRPR
# notes: 15-aa peptide
# B18: TGF-β1 inhibitor peptide P17 (SEQ ID NO: 17) (peptide)
# peptide: KRIWFIPRSSWYERA
# notes: 15-aa peptide
# B19: peptide identified by SEQ ID NO: 11 (peptide)
# peptide: WHKYFLRRPLSVRTR
# notes: 15-aa peptide
# B20: peptide identified by SEQ ID NO: 21 (peptide)
# peptide: HVRLHHYLRHRSLPN
# notes: 15-aa peptide
# B21: peptide identified by SEQ ID NO: 8 (peptide)
# peptide: WHWRHRIPLQLAAGR
# notes: 15-aa peptide
# B22: peptide identified by SEQ ID NO: 16 (peptide)
# peptide: RLHGHRSHRFTHVAQ
# notes: 15-aa peptide
# B23: peptide identified by SEQ ID NO: 13 (peptide)
# peptide: RKWFLQHRRMPVSVL
# notes: 15-aa peptide
# B24: truncated peptide SEQ ID NO: 29 (T6) (peptide)
# peptide: WFIPRSSWYERA
# B25: truncated peptide SEQ ID NO: 30 (T7) (peptide)
# peptide: FIPRSSWYERA
# B26: truncated peptide SEQ ID NO: 26 (T3) (peptide)
# peptide: IWFIPRSSWYERA
# B27: truncated peptide SEQ ID NO: 28 (T5) (peptide)
# peptide: WFIPRSSWY
# B28: truncated peptide SEQ ID NO: 32 (T9) (peptide)
# peptide: PRSSWYERA
# B29: truncated peptide SEQ ID NO: 27 (T4) (peptide)
# peptide: IWFIPRSSWYE
# B30: truncated peptide SEQ ID NO: 36 (T13) (peptide)
# peptide: KRIWFIPRS
# B31: truncated peptide SEQ ID NO: 25 (T2) (peptide)
# peptide: RIWFIPRSSWYER
# B32: truncated peptide SEQ ID NO: 24 (T1) (peptide)
# peptide: RIWFIPRSSWYERA
# B33: truncated peptide SEQ ID NO: 33 (T10) (peptide)
# peptide: KRIWFIPRSSWYER
# B34: truncated peptide SEQ ID NO: 35 (T12) (peptide)
# peptide: KRIWFIPRSS
# B35: truncated peptide SEQ ID NO: 34 (T11) (peptide)
# peptide: KRIWFIPRSSWY
# B36: truncated peptide SEQ ID NO: 31 (T8) (peptide)
# peptide: IPRSSWYERA
# Molecular target: TGF-β1 (Roche)
# Sequence (P01137 279-390): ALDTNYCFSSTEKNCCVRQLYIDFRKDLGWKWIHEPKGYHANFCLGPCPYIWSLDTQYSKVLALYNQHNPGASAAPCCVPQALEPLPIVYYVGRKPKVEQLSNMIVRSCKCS
# Assay: cell-based or functional assay
row,Binder,"% Inhibition (Mv-1-Lu cell line growth reestablishment, 3H-thymidine) [%]"
1,B1,10.7
2,B2,9.71
3,B3,-25
4,B4,13.4
5,B5,4.13
6,B6,3.33
7,B7,-0.96
8,B8,12.8
9,B9,4.98
10,B10,25.4
11,B11,6.16
12,B12,15.8
13,B13,3.62
14,B14,-4.58
15,B15,5.53
16,B16,7.26
17,B17,21.3
18,B18,38.9
19,B19,27.4
20,B20,13.4
21,B21,15.7
22,B22,9.47
23,B23,18

# Molecular target: TGF-β1 raised in mice by acute liver damage (CCl4) (mouse, UniProt P04202 279-390, limits assumed)
# Sequence (P04202 279-390 limits assumed): as the sequence (P01137 279-390) above, with A75S counted along it
# Assay: cell-based or functional assay
row,Binder,"% Inhibition (type I collagen mRNA induction, acute liver damage model in mice) [%]"
1,B2,12.1
2,B4,14.3
3,B6,0.69
4,B7,36.6
5,B8,74.9
6,B9,26.6
7,B10,2.09
8,B11,1.41
9,B13,49.8
10,B15,51.3
11,B16,-3.51
12,B18,93.1
13,B19,39.3
14,B23,32.7

# Molecular target: TGF-β1 (Roche)
# Assay: cell-based or functional assay
# Remark: another data set of the same source
row,Binder,% Inhibition (Mv-1-Lu cell line growth reestablishment) [%]
1,B24,2.7
2,B25,-0.3
3,B26,4.5
4,B27,3.1
5,B28,3.8
6,B29,1.4
7,B30,6.2
8,B31,6.2
9,B32,9.4
10,B33,31.4
11,B34,6
12,B35,34.4
13,B18,28.5
14,B36,3.4

# Molecular target: biotinylated TGF-β1 (Homo sapiens (Human), UniProt P01137 279-390, Biotinylated (site or sites not stated) for capture on streptavidin plates. The active cytokine is a disulfide-linked 25 kDa homodimer; one subunit is given.)
# Sequence (P01137 279-390 limits assumed, form in doubt): as the sequence (P01137 279-390) above
# Assay: phage display biopanning on biotinylated TGF-β1 on streptavidin plates; clones among 108 colonies after 3 cycles
row,Binder,No. colonies [colonies]
1,B1,1
2,B2,1
3,B3,2
4,B4,1
5,B5,1
6,B6,6
7,B7,1
8,B8,12
9,B9,1
10,B10,41
11,B11,1
12,B12,1
13,B13,2
14,B14,1
15,B15,18
16,B17,1
17,B18,3
18,B19,4
19,B20,1
20,B21,2
21,B22,1
22,B23,6
